Measured values: the supplement of paper PMC9233669
This sample holds only a part of the variants without activity.

Key:
biotinyl-Trp-oxazolone = assay: self-aminoacylation, catalytic enhancement (BWO) (fold over background); higher = more active; k-Seq, kA / k0A0; sequences stand for … in GGGAAUGGAUCCACAUCUACGAAUUC…UUCACUGCAGACUUGACGAAGCUG
Summary of the method: (§1)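 Mutagenized RNA pools (0.43 μM; 21-nt variable region) were treated with 2–1250 μM of each biotinyl-aminoacyl-oxazolone. Conditions were 50 μL HEPES/NaCl/KCl/MgCl2/CaCl2 buffer, 5% acetonitrile, pH 6.9–7.0, room temperature, 90 minutes. Catalytic enhancement, the median kA relative to the uncatalyzed rate, was derived from streptavidin capture, qPCR and Illumina sequencing.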

biotinyl-Ile-oxazolone = assay: self-aminoacylation, catalytic enhancement (BIO) (fold over background); higher = more active; k-Seq, kA / k0A0; sequences stand for … in GGGAAUGGAUCCACAUCUACGAAUUC…UUCACUGCAGACUUGACGAAGCUG
Summary of the method: as §1

biotinyl-Leu-oxazolone = assay: self-aminoacylation, catalytic enhancement (BLO) (fold over background); higher = more active; k-Seq, kA / k0A0; sequences stand for … in GGGAAUGGAUCCACAUCUACGAAUUC…UUCACUGCAGACUUGACGAAGCUG
Summary of the method: as §1

biotinyl-Val-oxazolone = assay: self-aminoacylation, catalytic enhancement (BVO) (fold over background); higher = more active; k-Seq, kA / k0A0; sequences stand for … in GGGAAUGGAUCCACAUCUACGAAUUC…UUCACUGCAGACUUGACGAAGCUG
Summary of the method: as §1

biotinyl-Met-oxazolone = assay: self-aminoacylation, catalytic enhancement (BMO) (fold over background); higher = more active; k-Seq, kA / k0A0; sequences stand for … in GGGAAUGGAUCCACAUCUACGAAUUC…UUCACUGCAGACUUGACGAAGCUG
Summary of the method: as §1

biotinyl-Phe-oxazolone = assay: self-aminoacylation, catalytic enhancement (BFO) (fold over background); higher = more active; k-Seq, kA / k0A0; sequences stand for … in GGGAAUGGAUCCACAUCUACGAAUUC…UUCACUGCAGACUUGACGAAGCUG
Summary of the method: as §1

Row | Sequence | self-aminoacylation (biotinyl-Trp-oxazolone) | self-aminoacylation (biotinyl-Ile-oxazolone) | self-aminoacylation (biotinyl-Leu-oxazolone) | self-aminoacylation (biotinyl-Val-oxazolone) | self-aminoacylation (biotinyl-Met-oxazolone) | self-aminoacylation (biotinyl-Phe-oxazolone)
1 | CUCCUUAAAACAAUCGGUCUG [Fam1A.1 aminoacylation ribozyme variant] | 1.32 | 1.06 | 0.899 | 0.862 | 1.12 | 1.05
2 | CUACUUCAAAAAAUCGGUUUG [Fam1A.1 aminoacylation ribozyme variant] | 6.33 | 1.03 | 0.84 | 0.695 | 0.73 | 9.83
3 | AAGUUUGCUUAUAGUCGCGAG [Fam3.1 aminoacylation ribozyme variant] | 1.53 | 1.01 | 0.821 | 1.03 | 1.07 | 0.935
4 | AAGUUUGCCAAUAGUCGAAAG [Fam3.1 aminoacylation ribozyme variant] | 1.5 | 1.05 | 0.911 | 1.02 | 1.44 | 0.727
5 | CCACACUUCAAGGAAUUGGUC [Fam1B.1 aminoacylation ribozyme variant] | 0.823 | 0.901 | 1.03 | 0.726 | 0.755 | 0.734
6 | AUUCACCUACGUCAUCGAGUG [Fam2.2 aminoacylation ribozyme variant] | 3.77 | 2.45 | 4.08 | 2.71 | 4.25 | 12.5
7 | CUAGUUCAAACACUCGGUCUG [Fam1A.1 aminoacylation ribozyme variant] | 1.04 | 1.35 | 1.48 | 1.31 | 1.46 | 5.58
8 | AUUACCCUGGUCAGCGACUGA [Fam2.1 aminoacylation ribozyme variant] | 1.94 | 1.12 | 1.05 | 1.31 | 1.3 | 1.03
9 | CUACUUCAAACAAUCCGGCUG [Fam1A.1 aminoacylation ribozyme variant] | 0.952 | 1.5 | 1.44 | 1.78 | 1.4 | 1.01
10 | AUCCACUUAGGUCAUCGGGUG [Fam2.2 aminoacylation ribozyme variant] | 7.26 | 5.19 | 8.6 | 4.85 | 6.88 | 63.8
11 | GGACACUUCAAGCAAUCGGUC [Fam1B.1 aminoacylation ribozyme variant] | 22.5 | 2.38 | 2.4 | 2.29 | 2.13 | 26.7
12 | CUUCUUCAAGCAAUCGGUCUG [Fam1A.1 aminoacylation ribozyme variant] | 2.18 | 0.745 | 0.978 | 0.944 | 0.909 | 3.14
13 | UCACACUUCAAGCAACCGGUC [Fam1B.1 aminoacylation ribozyme variant] | 0.796 | 0.984 | 0.739 | 1.05 | 0.801 | 1.26
14 | AUUACCCUGUUCAUCGAGUGA [Fam2.1 aminoacylation ribozyme variant] | 7.34 | 2.97 | 5.44 | 3.22 | 5.57 | 16.6
15 | AUUAGCCUAGGUCAUCGGGUG [Fam2.2 aminoacylation ribozyme variant] | 23.3 | 19 | 41.9 | 15.8 | 30.9 | 219
16 | AUGCCCCUGGUCAUCGAGUGA [Fam2.1 aminoacylation ribozyme variant] | 10 | 5.14 | 10.2 | 5.59 | 9.73 | 38.4
17 | AAGUUUGCCAAUAGUCGUAAG [Fam3.1 aminoacylation ribozyme variant] | 1.51 | 0.916 | 0.724 | 0.732 | 0.873 | 1.38
18 | AAGCUUGCAAAUAGUCGCAAG [Fam3.1 aminoacylation ribozyme variant] | 2.14 | 2.14 | 2.07 | 2.25 | 2.53 | 7.03
19 | AAGUGUGCUAAUAGUCCCAAG [Fam3.1 aminoacylation ribozyme variant] | 2.02 | 1.34 | 1.24 | 1.28 | 1.17 | 3.77
20 | CUACUUUAGACAAUCGGUCUG [Fam1A.1 aminoacylation ribozyme variant] | 0.518 | 0.77 | 0.7 | 0.826 | 0.847 | 0.65
21 | AAGGUUGCUAAUAUUCGCAAG [Fam3.1 aminoacylation ribozyme variant] | 1.22 | 1.59 | 2.03 | 1.26 | 1.22 | 1.6
22 | AUCCACGUAGGUCAUCGGGUG [Fam2.2 aminoacylation ribozyme variant] | 4.86 | 3.4 | 4.88 | 4.96 | 4.61 | 37.4
23 | AUUCACCUAGGUCAUAGCGUG [Fam2.2 aminoacylation ribozyme variant] | 3.55 | 2.46 | 4.63 | 2.15 | 3.36 | 17.1
24 | AUUACCCUGGUCAUGGAAUGA [Fam2.1 aminoacylation ribozyme variant] | 2.08 | 1.19 | 1.17 | 1.21 | 1.53 | 1.95
25 | AUUACCCUGCUCAUCGAAUGA [Fam2.1 aminoacylation ribozyme variant] | 1.32 | 0.867 | 0.735 | 0.974 | 0.845 | 0.772
26 | CCACACUUCAAUCAAUCGAUC [Fam1B.1 aminoacylation ribozyme variant] | 0.592 | 0.523 | 0.512 | 0.609 | 0.463 | 1.25
